Test results as given in publication PMC7125119, “An oncopeptide regulates m6A recognition by the m6A reader IGF2BP1 and tumorigenesis”.

Target: IGF2BP1-Flag (recombinant);RBRP-Flag WT (Homo sapiens?;Homo sapiens, UniProt Q9NZI8;C0HM01 1-577;1-71, |)
Assay: EMSA; RBRP WT increases IGF2BP1 binding; Pull-down: 1 nmol biotin-RNA on streptavidin-agarose, nuclear extract, 30 C 30 min, immunoblot. EMSA: LightShift kit, 20 pmol RNA, 6 ug IGF2BP1-Flag, 2 ug RBRP, room temperature 30 min, then 0.2% glutaraldehyde (1 ul) on ice 15 min, 6% TBE gel; salt and binding pH not stated
Conditions: protein: recombinant;recombinant; label: biotin 5'; single strand

Sequence of IGF2BP1-Flag (recombinant);RBRP-Flag WT (Q9NZI8 whole entry, chain 1 of 2): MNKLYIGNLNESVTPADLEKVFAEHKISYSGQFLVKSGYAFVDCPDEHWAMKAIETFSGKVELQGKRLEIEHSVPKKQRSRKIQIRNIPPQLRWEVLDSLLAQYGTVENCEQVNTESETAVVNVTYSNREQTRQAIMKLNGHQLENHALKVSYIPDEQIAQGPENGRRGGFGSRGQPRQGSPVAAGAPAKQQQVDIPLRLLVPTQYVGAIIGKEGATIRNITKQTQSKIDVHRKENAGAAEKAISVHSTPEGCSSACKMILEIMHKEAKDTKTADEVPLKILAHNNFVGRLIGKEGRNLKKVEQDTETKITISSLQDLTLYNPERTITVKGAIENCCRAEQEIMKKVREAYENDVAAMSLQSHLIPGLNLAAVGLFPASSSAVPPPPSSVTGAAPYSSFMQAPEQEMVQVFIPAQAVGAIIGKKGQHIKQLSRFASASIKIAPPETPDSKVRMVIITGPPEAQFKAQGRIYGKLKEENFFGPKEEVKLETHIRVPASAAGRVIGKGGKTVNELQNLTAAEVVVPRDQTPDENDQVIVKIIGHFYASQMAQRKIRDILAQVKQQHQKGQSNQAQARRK
Sequence of IGF2BP1-Flag (recombinant);RBRP-Flag WT (C0HM01 whole entry, chain 2 of 2): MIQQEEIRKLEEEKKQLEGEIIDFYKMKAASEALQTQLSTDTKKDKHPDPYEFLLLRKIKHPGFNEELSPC

Binder: CGUCUCGGACUCGGACUGCU (ssRNA, m6A at 9 and 15) [ss-m6A]
- binding result: binds
